Target: IL-1 receptor on human melanoma A375.S2 cells (human (endogenous in A375.S2)) (UniProt P14778)
Chain of UniProt P14778 (P14778 18-569): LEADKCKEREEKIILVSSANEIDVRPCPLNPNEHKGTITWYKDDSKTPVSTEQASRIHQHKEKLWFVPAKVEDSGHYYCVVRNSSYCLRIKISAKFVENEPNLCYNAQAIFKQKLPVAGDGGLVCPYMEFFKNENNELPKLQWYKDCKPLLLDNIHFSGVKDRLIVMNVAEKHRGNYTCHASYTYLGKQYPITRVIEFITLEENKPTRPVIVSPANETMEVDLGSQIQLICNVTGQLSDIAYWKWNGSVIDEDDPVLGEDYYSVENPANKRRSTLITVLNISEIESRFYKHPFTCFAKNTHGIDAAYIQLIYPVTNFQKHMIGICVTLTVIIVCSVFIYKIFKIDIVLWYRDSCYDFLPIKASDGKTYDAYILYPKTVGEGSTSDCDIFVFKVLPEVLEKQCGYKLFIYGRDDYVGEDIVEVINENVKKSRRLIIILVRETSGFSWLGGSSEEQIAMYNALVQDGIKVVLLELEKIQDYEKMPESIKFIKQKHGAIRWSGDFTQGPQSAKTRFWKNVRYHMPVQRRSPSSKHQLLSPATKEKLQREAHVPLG

IL-1ra-HSA fusion protein (human serum albumin fused to the carboxyl terminal of human IL-1ra) (from UniProt P02768 25-609)
input giving the 50% level of inhibition of the cytolytic activity of 1 ng/ml (0.06 nM) IL-1β to A375.S2 cells (MTT, 72 h); the pair blocked is IL-1β and the IL-1 receptor: 2 nM
input giving the 100% level of inhibition of the cytolytic activity of 1 ng/ml (0.06 nM) IL-1β to A375.S2 cells (MTT, 72 h); the pair blocked is IL-1β and the IL-1 receptor: 32 nM

Source: publication PMC3505484
